Measurements from patent publication US20120201781A1 (AbbVie / Abbott, published 2012).

Tests used:
recombinant human IL-1α [1] = biological target: T1, recombinant human IL-1α (human, UniProt P01583 113-271); experiment: cell-based or functional assay
T1 sequence: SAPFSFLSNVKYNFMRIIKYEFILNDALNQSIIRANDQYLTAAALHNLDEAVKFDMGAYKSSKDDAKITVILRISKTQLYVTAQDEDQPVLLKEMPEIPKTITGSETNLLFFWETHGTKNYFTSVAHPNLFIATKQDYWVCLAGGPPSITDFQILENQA

recombinant human IL-1β [2] = biological target: T2, recombinant human IL-1β (human, UniProt P01584 117-269); experiment: SPR (Biacore)
T2 construct: Recombinant protein; also called hIL-1β; rhIL-1β

recombinant human IL-1α [3] = biological target: T1, recombinant human IL-1α; experiment: SPR (Biacore)
recombinant human IL-1β [4] = biological target: T2, recombinant human IL-1β; experiment: cell-based or functional assay

B1: hIL-1α/β DVD3a-Ig (bispecific antibody, human IgG1, kappa)
heavy: not shown
light: DIVMTQSQRFMSTSVGDRVSVTCKASQNVGTNIAWYQQKPGQSPRALIYSASYRYSGVPDRFTGSGSGTDFTLTISNVQSVDLAEYFCQQYTRYPLTFGGGTKLEIKRTVAAPETTVTQSPASLSMAIGEKVTIRCITSTDIDVDMNWYQQKPGEPPKLLISQGNTLRPGVPSRFSSSGSGTDFVFIIENMLSEDVADYYCLQSDNLPLTFGAGTKLELKRRTVAAPSVFIFPPSDEQLKSGTASVVCLLNNFYPREAKVQWKVDNALQSGNSQESVTEQDSKDSTYSLSSTLTLSKADYEKHKVYACEVTHQGLSSPVTKSFNRGEC
notes: 18F4.2C8 (outer) - short linker - 1B12.4H4 (inner), a-b-C orientation
- Potency (IC50) M, MRC-5 bioassay (recombinant human IL-1α [1]): 750 pM
- Kd (recombinant human IL-1β [2]): 63.7 nM
- Kd (recombinant human IL-1α [3]): 0.837 nM

B2: hIL-1α/β DVD4a-Ig (bispecific antibody, human IgG1, kappa)
heavy: not shown
light: DIVMTQSQRFMSTSVGDRVSVTCKASQNVGTNIAWYQQKPGQSPRALIYSASYRYSGVPDRFTGSGSGTDFTLTISNVQSVDLAEYFCQQYTRYPLTFGGGTKLEIKRTVAAPSVFIFPPETTVTQSPASLSMAIGEKVTIRCITSTDIDVDMNWYQQKPGEPPKLLISQGNTLRPGVPSRFSSSGSGTDFVFIIENMLSEDVADYYCLQSDNLPLTFGAGTKLELKRTVAAPSVFIFPPSDEQLKSGTASVVCLLNNFYPREAKVQWKVDNALQSGNSQESVTEQDSKDSTYSLSSTLTLSKADYEKHKVYACEVTHQGLSSPVTKSFNRGEC
notes: 18F4.2C8 (outer) - long linker - 1B12.4H4 (inner), a-b-C orientation
- Potency (IC50) M, MRC-5 bioassay (recombinant human IL-1β [4]): 10 nM
- Potency (IC50) M, MRC-5 bioassay (recombinant human IL-1α [1]): 350 pM
- Kd (recombinant human IL-1β [2]): 0.93 nM
- Kd (recombinant human IL-1α [3]): 0.701 nM

B3: hIL-1α/β DVD3b-Ig (bispecific antibody, human IgG1, kappa)
heavy: not shown
light: ETTVTQSPASLSMAIGEKVTIRCITSTDIDVDMNWYQQKPGEPPKLLISQGNTLRPGVPSRFSSSGSGTDFVFIIENMLSEDVADYYCLQSDNLPLTFGAGTKLELKRTVAAPDIVMTQSQRFMSTSVGDRVSVTCKASQNVGTNIAWYQQKPGQSPRALIYSASYRYSGVPDRFTGSGSGTDFTLTISNVQSVDLAEYFCQQYTRYPLTFGGGTKLEIKRTVAAPSVFIFPPSDEQLKSGTASVVCLLNNFYPREAKVQWKVDNALQSGNSQESVTEQDSKDSTYSLSSTLTLSKADYEKHKVYACEVTHQGLSSPVTKSFNRGEC
notes: 1B12.4H4 (outer) - short linker - 18F4.2C8 (inner), b-a-C orientation
- Potency (IC50) M, MRC-5 bioassay (recombinant human IL-1β [4]): 0.4 nM
- Potency (IC50) M, MRC-5 bioassay (recombinant human IL-1α [1]): 700 pM
- Kd (recombinant human IL-1β [2]): 0.19 nM
- Kd (recombinant human IL-1α [3]): 1.24 nM

B4: hIL-1α/β DVD4b-Ig (bispecific antibody, human IgG1, kappa)
heavy: not shown
light: ETTVTQSPASLSMAIGEKVTIRCITSTDIDVDMNWYQQKPGEPPKLLISQGNTLRPGVPSRFSSSGSGTDFVFIIENMLSEDVADYYCLQSDNLPLTFGAGTKLELKRTVAAPSVFIFPPDIVMTQSQRFMSTSVGDRVSVTCKASQNVGTNIAWYQQKPGQSPRALIYSASYRYSGVPDRFTGSGSGTDFTLTISNVQSVDLAEYFCQQYTRYPLTFGGGTKLEIKRTVAAPSVFIFPPSDEQLKSGTASVVCLLNNFYPREAKVQWKVDNALQSGNSQESVTEQDSKDSTYSLSSTLTLSKADYEKHKVYACEVTHQGLSSPVTKSFNRGEC
notes: 1B12.4H4 (outer) - long linker - 18F4.2C8 (inner), b-a-C orientation
- Potency (IC50) M, MRC-5 bioassay (recombinant human IL-1β [4]): 0.5 nM
- Potency (IC50) M, MRC-5 bioassay (recombinant human IL-1α [1]): 350 pM
- Kd (recombinant human IL-1β [2]): 0.128 nM
- Kd (recombinant human IL-1α [3]): 0.56 nM

B5: hIL-1α/β DVD5a-Ig (bispecific antibody, human IgG1, kappa)
heavy: not shown
light: QIVLTQSPALMSASPGEKVTMTCSASSSVNYMYWYQQKPRSSPKPWIYLTSNLASGVPARFSGSGSGTSYSLTISSMEAEDAATYYCQQWNSNPYTFGGGTKLEMKRTVAAPQIVLTQSPAIMSASPGEKVTITCSASSSVSYMHWFQQKPGASPKLWIYSTSNLASGVPARFSGSGSGTSYSLTVSRMEAEDAATYYCQQRSTYPYTFGGGTKLEIKRTVAAPSVFIFPPSDEQLKSGTASVVCLLNNFYPREAKVQWKVDNALQSGNSQESVTEQDSKDSTYSLSSTLTLSKADYEKHKVYACEVTHQGLSSPVTKSFNRGEC
notes: 6H3.1A4.3E11 (outer) - short linker - 6B12.4F6 (inner), a-b-C orientation
- Potency (IC50) M, MRC-5 bioassay (recombinant human IL-1β [4]): 19 nM
- Potency (IC50) M, MRC-5 bioassay (recombinant human IL-1α [1]): 2600 pM
- Kd (recombinant human IL-1β [2]): 12.5 nM
- Kd (recombinant human IL-1α [3]): 0.508 nM
